# Laboratory results: article PMC12077149, “Evolution of PqsE as a Pseudomonas aeruginosa-specific regulator of LuxR-type receptors: insights from Pseudomonas and Burkholderia” (mBio, 2025)
# Assays:
# [1] = system: CC(=O)CC(=O)SCCNC(=O)CCNC(=O)[C@H](O)C(C)(C)COP(=O)(O)OP(=O)(O)OC[C@H]1O[C@@H](n2cnc3c(N)ncnc32)[C@H](O)[C@@H]1OP(=O)(O)O; experiment: purified protein; settings: 0.1 M Tris-HCl pH 8.0, 2 mM DTNB, 2 µM enzyme, substrate up to 1 mM
# [2] = system: CCCC(=O)Oc1ccc2c(C)cc(=O)oc2c1; experiment: purified protein; settings: 50 mM Tricine, 0.01% Triton X-100; 2 µM enzyme; substrate up to 8 µM
substance,measurement,setting,value
PqsE (Pseudomonas aeruginosa UCBPP-PA14),Km,[1],3200 ± 200 µM
same,kcat,[1],0.438 ± 0.05 s⁻¹
same,kcat/Km,[1],140 M⁻¹ s⁻¹
same,Km,[2],8.1 ± 0.1 µM
same,kcat,[2],0.0197 ± 0.09 s⁻¹
same,kcat/Km,[2],2400 M⁻¹ s⁻¹
